In patent publication US20240245771A1 (XUZHOU MEDICAL UNIVERSITY, published 2024):

Molecular target: T1, B7H3 target antigen (UniProt Q5ZPR3 29-466, limits assumed)
T1 construct: Control antigen is called 'other biotin-free antigen', which hints that this antigen may be biotinylated; also called B7H3 antigen; B7-H3 antigen
T1 sequence (looked up): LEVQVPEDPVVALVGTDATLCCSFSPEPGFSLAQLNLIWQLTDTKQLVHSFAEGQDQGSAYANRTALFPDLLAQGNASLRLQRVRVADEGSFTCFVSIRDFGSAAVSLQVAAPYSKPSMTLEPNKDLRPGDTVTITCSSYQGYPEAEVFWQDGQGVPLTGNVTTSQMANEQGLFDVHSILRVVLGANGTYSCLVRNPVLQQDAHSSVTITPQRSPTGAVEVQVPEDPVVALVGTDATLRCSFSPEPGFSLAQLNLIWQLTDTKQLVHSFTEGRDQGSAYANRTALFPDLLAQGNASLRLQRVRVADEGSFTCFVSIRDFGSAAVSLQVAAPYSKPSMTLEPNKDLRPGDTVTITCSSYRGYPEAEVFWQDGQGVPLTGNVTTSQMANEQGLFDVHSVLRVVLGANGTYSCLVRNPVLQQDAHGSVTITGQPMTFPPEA
Test: Biacore SPR, antibody captured on Protein A chip, antigen flowed, Langmuir fit
Protocol: The B7-H3 antigen was allowed to flow over the chip surface using a series of concentration gradients. The binding time was 120 s, and the dissociation time was 120 s. After the cycle dissociation was completed, the biochip was washed with glycine-hydrochloric acid (pH=1.5) buffer, the sample injection was performed at 30 μL/min, and regeneration was performed for 30 s. Reaction signals were detected in real time using a Biacore instrument, and thus binding and dissociation curves were obtained.
The data obtained from the experiment were fitted with the Langmuir model using GE software.

Kd: 27.8 nM
B1: purified B7H3-02 scFv protein (prokaryotic expression, pET-22b) (scFv)
scFv: EVQLFQSGGGLVQPGGSLRLSCAASGFTFSSYAMSWVRQAPGKGLEWVSAISGSGGSTYYADSVKGRFTISRDNSKNTLYLQMNSLRAEDTAVYYCARGVGRGFDYWGQGTTVTVSSSGGGSGGGGSGGGGSDIQLTQSPSSLSASVGDRVTITCRASQSISIYLNWYRQQPGKAPKLLIYAASSLQSGVPSRFSGSGSGTDFTLTISSLQPEDFATYFCQQTYSTPPWTFGQGTKVDIK
notes: The Biacore experiment speaks of 'purified B7H3-02 antibodies' captured on a Protein A chip; also called B7H3-02 scFv antibody; B7H3-02 antibody; not shown: His tag implied (detected with His antibodies, pET-22b vector)
